Molecular target: T1, Recombinant human IZUMO1 ectodomain (residues 22-254) (human, UniProt Q8IYV9 22-254)
T1 construct: IZUMO1, human, UniProt Q8IYV9, residues 22-254 (ectodomain); The construct has an N-terminal BiP signal peptide for secretion and a thrombin cleavage site before the C-terminal 10xHis tag; In the bead assay the tag was probably cleaved, since the beads capture His tags (surmise); also called rIZUMO1; IZUMO1 (residues 22-254); source: Drosophila S2 cells, stably transfected, secreted; purified …
Assay: SPR; Nicoya Alto digital SPR, single-cycle kinetics, 25 °C; biotinylated JUNO (800 nM) immobilised as bait on streptavidin-coated carboxyl PEG cartridge; IZUMO1 as analyte at 1000, 333, 111, 37 and 12.3 nM; PBS pH 7.4, 0.05% Tween-20; technical triplicate
Settings: both partners purified

T1 sequence (Q8IYV9 22-254): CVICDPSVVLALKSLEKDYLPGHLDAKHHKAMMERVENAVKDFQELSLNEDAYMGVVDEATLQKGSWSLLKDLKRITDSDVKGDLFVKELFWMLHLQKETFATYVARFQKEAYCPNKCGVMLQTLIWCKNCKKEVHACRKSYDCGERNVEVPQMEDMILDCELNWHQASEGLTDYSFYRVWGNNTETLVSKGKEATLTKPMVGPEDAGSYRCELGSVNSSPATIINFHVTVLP

Kd: 37.6 nM
koff: 0.00387 s⁻¹
kon: 103000 M⁻¹ s⁻¹
B1: Human JUNO ectodomain (residues 20-228), biotinylated (domain or fragment, UniProt A6ND01 20-228, looked up)
chain: GDELLNICMNAKHHKRVPSPEDKLYEECIPWKDNACCTLTTSWEAHLDVSPLYNFSLFHCGLLMPGCRKHFIQAICFYECSPNLGPWIQPVGSLGWEVAPSGQGERVVNVPLCQEDCEEWWEDCRMSYTCKSNWRGGWDWSQGKNRCPKGAQCLPFSHYFPTPADLCEKTWSNSFKASPERRNSGRCLQKWFEPAQGNPNVAVARLFAS
modifications: biotin (EZ-link Sulfo-NHS-LC-Biotin, 1:1 molar ratio); glycosylated
notes: JUNO, human, UniProt A6ND01, residues 20-228 (ectodomain); The construct has an N-terminal BiP signal peptide for secretion and a thrombin cleavage site before the C-terminal 10xHis tag; also called recombinant JUNO; rhJUNO; source: Drosophila S2 cells, stably transfected, secreted; purified (Ni-NTA, SEC)
